Test results taken from the supplement of paper PMC10567573.

B1: EMD (parent)
chain: YQSKGYNDDYYEESYFTTRTYGEP

Variants of: B1
Assay: protein stability index of a GFP-peptide fusion (GPS, HEK-293T) (PSI 1-6); higher = more stable
Conditions: c terminus: a fixed tail appended
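Also: lentivirally expressed fusions sorted by FACS into six bins by GFP to DsRed ratio, PSI derived from sequencing read proportions per bin multiplied by bin number.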

| Variant | protein stability index |
| --- | --- |
| YQSKGVNDDYYEESYFTTRTYGEP [Y6V] | 3.31 |
| YQSKGNNDDYYEESYFTTRTYGEP [Y6N] | 3.16 |
| YQSKGPNDDYYEESYFTTRTYGEP [Y6P] | 3.3 |
| YQSKGCNDDYYEESYFTTRTYGEP [Y6C] | 2.65 |
| YQSKGTNDDYYEESYFTTRTYGEP [Y6T] | 3.34 |
| YQSKGINDDYYEESYFTTRTYGEP [Y6I] | 2.83 |
| YQSKGFNDDYYEESYFTTRTYGEP [Y6F] | 2.4 |
| YQSKGSNDDYYEESYFTTRTYGEP [Y6S] | 3.77 |
| YQSKGKNDDYYEESYFTTRTYGEP [Y6K] | 3.05 |
| YQSKGLNDDYYEESYFTTRTYGEP [Y6L] | 2.24 |
| YQSKGENDDYYEESYFTTRTYGEP [Y6E] | 3.76 |
| YQSKGRNDDYYEESYFTTRTYGEP [Y6R] | 2.56 |
| YQSKGHNDDYYEESYFTTRTYGEP [Y6H] | 2.82 |
| YQSKGGNDDYYEESYFTTRTYGEP [Y6G] | 3.01 |
| YQSKGMNDDYYEESYFTTRTYGEP [Y6M] | 2.85 |
| YQSKGWNDDYYEESYFTTRTYGEP [Y6W] | 1.48 |
| YQSKGQNDDYYEESYFTTRTYGEP [Y6Q] | 2.93 |
| YQSKGDNDDYYEESYFTTRTYGEP [Y6D] | 3.68 |
| YQSKGYNGDYYEESYFTTRTYGEP [D8G] | 1.65 |
| YQSKGYNLDYYEESYFTTRTYGEP [D8L] | 2.37 |
| YQSKGYNHDYYEESYFTTRTYGEP [D8H] | 1.96 |
| YQSKGYNTDYYEESYFTTRTYGEP [D8T] | 2.09 |
| YQSKGYNQDYYEESYFTTRTYGEP [D8Q] | 1.67 |
| YQSKGYNPDYYEESYFTTRTYGEP [D8P] | 2.36 |

| Variant | protein stability index |
| --- | --- |
| YQSKGYNVDYYEESYFTTRTYGEP [D8V] | 2.47 |
| YQSKGYNWDYYEESYFTTRTYGEP [D8W] | 2.85 |
| YQSKGYNIDYYEESYFTTRTYGEP [D8I] | 2.05 |
| YQSKGYNKDYYEESYFTTRTYGEP [D8K] | 1.91 |
| YQSKGYNRDYYEESYFTTRTYGEP [D8R] | 1.8 |
| YQSKGYNCDYYEESYFTTRTYGEP [D8C] | 2.62 |
| YQSKGYNEDYYEESYFTTRTYGEP [D8E] | 2.13 |
| YQSKGYNYDYYEESYFTTRTYGEP [D8Y] | 1.72 |
| YQSKGYNFDYYEESYFTTRTYGEP [D8F] | 2.13 |
| YQSKGYNNDYYEESYFTTRTYGEP [D8N] | 1.82 |
| YQSKGYNMDYYEESYFTTRTYGEP [D8M] | 3.87 |
| YQSKGYNADYYEESYFTTRTYGEP [D8A] | 1.5 |
| YQSKGYNSDYYEESYFTTRTYGEP [D8S] | 1.92 |
| YQSKGYNDDLYEESYFTTRTYGEP [Y10L] | 2.18 |
| YQSKGYNDDWYEESYFTTRTYGEP [Y10W] | 2.38 |
| YQSKGYNDDFYEESYFTTRTYGEP [Y10F] | 2.11 |
| YQSKGYNDDGYEESYFTTRTYGEP [Y10G] | 2.49 |
| YQSKGYNDDEYEESYFTTRTYGEP [Y10E] | 3.04 |
| YQSKGYNDDPYEESYFTTRTYGEP [Y10P] | 2.53 |
| YQSKGYNDDHYEESYFTTRTYGEP [Y10H] | 2.45 |
| YQSKGYNDDKYEESYFTTRTYGEP [Y10K] | 2.44 |
| YQSKGYNDDSYEESYFTTRTYGEP [Y10S] | 2.65 |
| YQSKGYNDDDYEESYFTTRTYGEP [Y10D] | 2.85 |
| YQSKGYNDDAYEESYFTTRTYGEP [Y10A] | 2.2 |

| Variant | protein stability index |
| --- | --- |
| YQSKGYNDDNYEESYFTTRTYGEP [Y10N] | 2.64 |
| YQSKGYNDDMYEESYFTTRTYGEP [Y10M] | 2.12 |
| YQSKGYNDDQYEESYFTTRTYGEP [Y10Q] | 2.67 |
| YQSKGYNDDTYEESYFTTRTYGEP [Y10T] | 2.5 |
| YQSKGYNDDCYEESYFTTRTYGEP [Y10C] | 2.47 |
| YQSKGYNDDRYEESYFTTRTYGEP [Y10R] | 2.82 |
| YQSKGYNDDIYEESYFTTRTYGEP [Y10I] | 2.52 |
| YQSKGYNDDVYEESYFTTRTYGEP [Y10V] | 2.82 |
| YQFKGYNDDYYEESYFTTRTYGEP [S3F] | 2.25 |
| YQMKGYNDDYYEESYFTTRTYGEP [S3M] | 2.38 |
| YQCKGYNDDYYEESYFTTRTYGEP [S3C] | 1.95 |
| YQNKGYNDDYYEESYFTTRTYGEP [S3N] | 2.45 |
| YQQKGYNDDYYEESYFTTRTYGEP [S3Q] | 2.43 |
| YQRKGYNDDYYEESYFTTRTYGEP [S3R] | 2.75 |
| YQEKGYNDDYYEESYFTTRTYGEP [S3E] | 3.25 |
| YQAKGYNDDYYEESYFTTRTYGEP [S3A] | 2.23 |
| YQTKGYNDDYYEESYFTTRTYGEP [S3T] | 2.54 |
| YQWKGYNDDYYEESYFTTRTYGEP [S3W] | 1.72 |
| YQVKGYNDDYYEESYFTTRTYGEP [S3V] | 1.95 |
| YQKKGYNDDYYEESYFTTRTYGEP [S3K] | 2.75 |
| YQHKGYNDDYYEESYFTTRTYGEP [S3H] | 2.42 |
| YQIKGYNDDYYEESYFTTRTYGEP [S3I] | 2.14 |
| YQDKGYNDDYYEESYFTTRTYGEP [S3D] | 3.31 |
| YQPKGYNDDYYEESYFTTRTYGEP [S3P] | 2.72 |

| Variant | protein stability index |
| --- | --- |
| YQYKGYNDDYYEESYFTTRTYGEP [S3Y] | 2.47 |
| YQLKGYNDDYYEESYFTTRTYGEP [S3L] | 2.17 |
| YQGKGYNDDYYEESYFTTRTYGEP [S3G] | 2.18 |
| YQSVGYNDDYYEESYFTTRTYGEP [K4V] | 2.54 |
| YQSWGYNDDYYEESYFTTRTYGEP [K4W] | 2.39 |
| YQSPGYNDDYYEESYFTTRTYGEP [K4P] | 2.5 |
| YQSYGYNDDYYEESYFTTRTYGEP [K4Y] | 2.06 |
| YQSLGYNDDYYEESYFTTRTYGEP [K4L] | 2.06 |
| YQSMGYNDDYYEESYFTTRTYGEP [K4M] | 2.32 |
| YQSSGYNDDYYEESYFTTRTYGEP [K4S] | 2.3 |
| YQSEGYNDDYYEESYFTTRTYGEP [K4E] | 3.46 |
| YQSIGYNDDYYEESYFTTRTYGEP [K4I] | 1.98 |
| YQSRGYNDDYYEESYFTTRTYGEP [K4R] | 2.44 |
| YQSAGYNDDYYEESYFTTRTYGEP [K4A] | 2.36 |
| YQSFGYNDDYYEESYFTTRTYGEP [K4F] | 1.69 |
| YQSNGYNDDYYEESYFTTRTYGEP [K4N] | 2.36 |
| YQSCGYNDDYYEESYFTTRTYGEP [K4C] | 2.63 |
| YQSQGYNDDYYEESYFTTRTYGEP [K4Q] | 2.39 |
| YQSGGYNDDYYEESYFTTRTYGEP [K4G] | 2.12 |
| YQSTGYNDDYYEESYFTTRTYGEP [K4T] | 2.38 |
| YQSHGYNDDYYEESYFTTRTYGEP [K4H] | 1.97 |
| YQSDGYNDDYYEESYFTTRTYGEP [K4D] | 3.33 |
